These results are taken from patent US7041790B2, “Fibrinogen binding moieties” (Dyax Corp., priority 2002, dated 2006).

Bridges are numbered along the chain shown (N, C = ends).

In the assay the target is T1, purified human fibrinogen (Homo sapiens, UniProt P02671+P02675+P02679).
T1 construct: purchased Calbiochem 341576
T1 sequence (P02671 20-629 limits assumed): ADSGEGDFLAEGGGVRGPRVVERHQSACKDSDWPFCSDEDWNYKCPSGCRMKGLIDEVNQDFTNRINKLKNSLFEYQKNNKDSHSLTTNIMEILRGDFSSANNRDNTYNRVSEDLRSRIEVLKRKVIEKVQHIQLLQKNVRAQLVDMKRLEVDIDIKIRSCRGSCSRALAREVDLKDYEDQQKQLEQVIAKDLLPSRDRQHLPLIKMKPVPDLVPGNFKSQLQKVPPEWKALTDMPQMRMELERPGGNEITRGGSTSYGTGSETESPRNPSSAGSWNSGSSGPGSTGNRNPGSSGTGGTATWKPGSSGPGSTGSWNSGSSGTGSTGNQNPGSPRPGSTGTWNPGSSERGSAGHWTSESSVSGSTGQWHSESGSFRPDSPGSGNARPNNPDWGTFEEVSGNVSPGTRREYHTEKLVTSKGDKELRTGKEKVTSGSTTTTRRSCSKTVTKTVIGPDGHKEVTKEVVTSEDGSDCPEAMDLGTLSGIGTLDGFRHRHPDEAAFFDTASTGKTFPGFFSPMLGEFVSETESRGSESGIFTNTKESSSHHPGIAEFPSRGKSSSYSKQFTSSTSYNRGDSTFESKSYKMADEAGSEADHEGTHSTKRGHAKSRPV
T1 sequence (P02675 31-491): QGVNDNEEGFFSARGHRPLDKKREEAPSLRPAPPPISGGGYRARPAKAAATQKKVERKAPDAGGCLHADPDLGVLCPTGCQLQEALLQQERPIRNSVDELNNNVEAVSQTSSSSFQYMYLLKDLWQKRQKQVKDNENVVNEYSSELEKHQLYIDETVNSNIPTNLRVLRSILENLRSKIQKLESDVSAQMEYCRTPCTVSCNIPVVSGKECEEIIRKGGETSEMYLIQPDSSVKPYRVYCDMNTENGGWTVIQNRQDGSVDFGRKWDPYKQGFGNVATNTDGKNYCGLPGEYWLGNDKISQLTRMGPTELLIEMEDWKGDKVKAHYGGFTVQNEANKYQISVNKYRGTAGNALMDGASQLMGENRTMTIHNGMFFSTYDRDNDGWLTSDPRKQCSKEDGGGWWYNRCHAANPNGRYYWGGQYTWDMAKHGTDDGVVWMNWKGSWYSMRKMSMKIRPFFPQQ
T1 sequence (P02679 27-433 limits assumed): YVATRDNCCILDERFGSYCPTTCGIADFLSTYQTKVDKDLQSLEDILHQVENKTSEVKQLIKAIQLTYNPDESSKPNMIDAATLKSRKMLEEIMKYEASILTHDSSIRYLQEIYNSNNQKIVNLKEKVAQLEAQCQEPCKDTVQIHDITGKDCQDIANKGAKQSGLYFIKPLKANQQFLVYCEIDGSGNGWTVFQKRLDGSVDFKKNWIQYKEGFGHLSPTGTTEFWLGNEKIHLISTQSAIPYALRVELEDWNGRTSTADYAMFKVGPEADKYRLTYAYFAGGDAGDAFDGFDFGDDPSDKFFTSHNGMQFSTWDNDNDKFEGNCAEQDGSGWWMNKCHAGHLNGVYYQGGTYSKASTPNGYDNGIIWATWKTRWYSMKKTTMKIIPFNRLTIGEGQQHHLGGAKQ
Put plainly: Purified fibrinogen binding capacity of fibrinogen binding columns. As to conditions: purified fibrinogen 0.5 mg/ml in PBS injected continuously, eluted with glycine 0.1M pH 2.5. As for the experimental part: FIG. 1 is a chromatogram illustrating the purified fibrinogen binding capacity of a fibrinogen binding column utilizing the fibrinogen binding peptide of SEQ ID NO:48 and having a ligand density of 2.0 μM/ml resin. Purified fibrinogen (0.5 mg/ml in PBS) was injected continuously onto the column until the A280 reading reached a plateau. The column was then washed with PBS until a baseline reading was obtained and then eluted with glycine buffer (0.1M, pH 2.5). The eluted fraction (major peak) was collected and analyzed by HPLC Size Exclusion Chromatography (SEC). The capacity of the column was calculated to be 2.076 mg fibrinogen/ml resin.
FIG. 2 is a chromatogram illustrating the purified fibrinogen binding capacity of a fibrinogen binding column utilizing the fibrinogen binding peptide of SEQ ID NO:48 and having a ligand density of 4.0 μM/ml resin. Purified fibrinogen (0.5 mg/ml in PBS) was injected continuously onto the column until the A280 reading reached a plateau. The column was then washed with PBS until a baseline reading was obtained and then eluted with glycine buffer (0.1M, pH 2.5). The eluted fraction (major peak) was collected and analyzed by HPLC Size Exclusion Chromatography (SEC). The capacity of the column was calculated to be 4.1 mg fibrinogen/ml resin. […]

In the case of “SEQ ID NO:48: fibrinogen binding polypeptide containing the cyclic core peptide of SEQ ID NO: 43 (Ac-AEGTGSLYLCNSYPMHPYCNPGK-NH2; disulfide 10-19 (inferred))”, the “fibrinogen binding capacity of the column” value is recorded as 2.076 mg fibrinogen/ml resin (ligand density 2.0 μM/ml resin) and 4.1 mg fibrinogen/ml resin (ligand density 4.0 μM/ml resin).
